Data taken from patent US5876948 (The Children's Medical Center Corporation, dated 1999).
Bridge positions count the residues as written; N and C are the ends. Square brackets hold non-standard residues; d marks the D form. Ends that are not written are not given here. NMeF = CN[C@@H](Cc1ccccc1)C(=O)O; pGlu = O=C1CC[C@@H](C(=O)O)N1; Sar = CNCC(=O)O

Target: β-amyloid peptide β1-40 (polypeptide corresponding to the first 40 amino acids of β-amyloid)
Experiment: cell-based or functional assay

Binder | Therapeutic Efficacy (%)
RPKPQQFFGLM-OMe [Sub P, Methyl Ester] | 71
RPKPQQFFGLM-NH2 [Substance P] | 100
RPKPQQF [Substance P (1-7)] | 82
RPKPQQFFGLX (nor-leucine at position 11) [[Nle^11]-Sub P] | 77
QFFGLM [Sub P (6-11)] | 65
RPCPQCFYPLM (disulfide 3-6; ends not checked) [[Cys^3,6, Tyr^8, Pro^9]-Sub P] | 53
RPKPQQFFGLM-OH [Sub P, Free Acid] | 53
[pGlu]QF[NMeF][Sar]LM (ends and bridges not checked) [[pGlu^5, Me-Phe^8, Sar^9]-Sub P (5-11)] | 41
FFGLM [Sub P (7-11)] | 41
